{
  "source": "patent US20140336363A1",
  "about": "(Hoffmann-La Roche, published 2014)",
  "key": {"[1]": {"biological_target": "T1, full-length wildtype CSF-1R (wt CSF-1R) (human, UniProt P07333 20-972)", "T1 sequence (P07333 20-972 limits assumed)": "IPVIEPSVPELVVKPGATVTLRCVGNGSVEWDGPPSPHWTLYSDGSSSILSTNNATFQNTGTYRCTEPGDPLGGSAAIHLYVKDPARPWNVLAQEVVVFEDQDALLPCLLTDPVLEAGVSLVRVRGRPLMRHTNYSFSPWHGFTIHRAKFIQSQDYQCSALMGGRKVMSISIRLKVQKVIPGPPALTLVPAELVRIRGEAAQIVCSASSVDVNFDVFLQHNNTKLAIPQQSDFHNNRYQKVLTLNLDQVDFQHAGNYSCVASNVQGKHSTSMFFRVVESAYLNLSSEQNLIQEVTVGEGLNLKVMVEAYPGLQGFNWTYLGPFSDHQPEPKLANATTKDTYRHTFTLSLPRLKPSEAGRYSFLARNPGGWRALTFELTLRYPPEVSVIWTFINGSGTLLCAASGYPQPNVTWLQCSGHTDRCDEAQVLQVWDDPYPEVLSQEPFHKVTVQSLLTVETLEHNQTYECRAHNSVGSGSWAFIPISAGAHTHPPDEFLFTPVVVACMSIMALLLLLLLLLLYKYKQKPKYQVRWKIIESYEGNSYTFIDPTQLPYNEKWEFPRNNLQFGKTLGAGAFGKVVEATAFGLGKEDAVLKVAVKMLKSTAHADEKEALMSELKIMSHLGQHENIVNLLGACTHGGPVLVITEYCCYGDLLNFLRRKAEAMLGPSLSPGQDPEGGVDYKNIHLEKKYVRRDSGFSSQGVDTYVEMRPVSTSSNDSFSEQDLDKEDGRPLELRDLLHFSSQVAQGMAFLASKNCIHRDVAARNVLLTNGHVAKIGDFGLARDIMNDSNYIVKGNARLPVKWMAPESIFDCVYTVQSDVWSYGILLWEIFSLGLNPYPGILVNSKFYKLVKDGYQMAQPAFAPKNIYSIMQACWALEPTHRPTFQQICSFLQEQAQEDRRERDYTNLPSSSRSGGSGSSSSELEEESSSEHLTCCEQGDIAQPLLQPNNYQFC", "test": "cell-based or functional assay"}, "[2]": {"biological_target": "mutant CSF-1R L301S Y969F (human) (UniProt P07333)", "sequence (P07333 20-972 L301S/Y969F limits assumed)": "as the sequence (P07333 20-972 limits assumed) above, with L282S, Y950F counted along it", "test": "cell-based or functional assay"}, "[3]": {"biological_target": "CSF-1R ECD (R&D-Systems 329-MR or in-house subcloned pCMV-presS-HisAvitag-hCSF-1R-ECD) (human) (UniProt P07333)", "sequence (P07333 20-517 limits assumed)": "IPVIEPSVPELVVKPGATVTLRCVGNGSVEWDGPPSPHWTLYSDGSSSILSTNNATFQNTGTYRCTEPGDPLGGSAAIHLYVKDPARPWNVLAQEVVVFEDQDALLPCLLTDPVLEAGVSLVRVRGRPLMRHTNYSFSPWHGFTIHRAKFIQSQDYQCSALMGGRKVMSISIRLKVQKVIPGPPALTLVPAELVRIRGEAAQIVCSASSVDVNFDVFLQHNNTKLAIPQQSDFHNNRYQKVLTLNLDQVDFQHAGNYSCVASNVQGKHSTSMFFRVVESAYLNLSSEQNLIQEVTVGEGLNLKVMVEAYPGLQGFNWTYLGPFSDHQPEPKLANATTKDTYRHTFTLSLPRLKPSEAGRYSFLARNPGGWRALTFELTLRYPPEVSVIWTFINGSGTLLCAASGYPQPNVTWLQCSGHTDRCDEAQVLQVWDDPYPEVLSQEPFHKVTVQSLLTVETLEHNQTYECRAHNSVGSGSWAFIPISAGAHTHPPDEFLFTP", "test": "SPR (BIACORE A100), 35 C, antibody captured, CSF-1R ECD in solution"}, "[4]": {"biological_target": "huCSF-1R-huFc chimera (soluble extracellular domain) (human) (UniProt P07333)", "sequence (P07333 20-517, change not shown)": "as the sequence (P07333 20-517 limits assumed) above", "test": "competition ELISA: antibody on plate-bound huCSF-1R-huFc, then 3 ng/ml CSF-1"}, "[5]": {"biological_target": "CSF-1R ECD (R&D-Systems 329-MR or in-house subcloned pCMV-presS-HisAvitag-hCSF-1R-ECD) (human) (UniProt P07333)", "test": "SPR cross-competition, 25 C; second antibody on CSF-1R held by captured Antibody 1; competitor <CSF-1R>9D11.2E8"}, "[6]": {"biological_target": "CSF-1R ECD (R&D-Systems 329-MR or in-house subcloned pCMV-presS-HisAvitag-hCSF-1R-ECD) (human) (UniProt P07333)", "test": "SPR cross-competition, 25 C; second antibody on CSF-1R held by captured Antibody 1; competitor <CSF-1R>10H2.2F12"}, "[7]": {"biological_target": "CSF-1R ECD (R&D-Systems 329-MR or in-house subcloned pCMV-presS-HisAvitag-hCSF-1R-ECD) (human) (UniProt P07333)", "test": "SPR cross-competition, 25 C; second antibody on CSF-1R held by captured Antibody 1; competitor SC-02, clone 2-4A5"}, "CSF-1R ECD (D1-D3)": {"biological_target": "T2, CSF-1R ECD (D1-D3) (human, UniProt P07333 20-296, limits assumed)", "T2 construct": "also called domains D1 to D3 of the extracellular domain of human CSF-1R", "T2 sequence (P07333 20-296 limits assumed)": "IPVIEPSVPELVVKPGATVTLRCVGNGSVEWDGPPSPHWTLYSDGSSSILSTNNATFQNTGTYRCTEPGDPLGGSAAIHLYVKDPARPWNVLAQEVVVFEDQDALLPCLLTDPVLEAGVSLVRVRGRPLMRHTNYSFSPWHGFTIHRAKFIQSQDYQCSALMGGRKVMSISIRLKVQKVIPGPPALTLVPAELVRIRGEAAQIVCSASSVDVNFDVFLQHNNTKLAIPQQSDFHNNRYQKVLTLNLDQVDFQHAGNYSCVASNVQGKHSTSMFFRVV", "test": "as in WO2011070024, Example 10 (method not told here)"}, "[8]": {"biological_target": "T3, CSF-1R ECD (R&D-Systems 329-MR or in-house subcloned pCMV-presS-HisAvitag-hCSF-1R-ECD) (human, UniProt P07333 20-517)", "T3 construct": "also called CSF-1R (R&D-Systems Cat. No. 329-MR); human CSF-1R Extracellular Domain (comprising domains D1 to D5)", "T3 sequence (P07333 20-517 limits assumed)": "as the sequence (P07333 20-517 limits assumed) above", "test": "SPR (BIACORE A100), 35 C, antibody captured, CSF-1R ECD in solution", "procedure": "CSF-1R ECD (R&D-Systems 329-MR or in-house subcloned pCMV-presS-HisAvitag-hCSF-1R-ECD were added in various concentrations in solution. Association was measured by an CSF-1R-injection of 1.5 minutes at 35° C.; dissociation was measured by washing the chip surface with buffer for 10 minutes at 35° C. Anti CSF-IR SC-02, clone 2-4A5 (Santa Cruz Biotechnology, US; see also Sherr, C. J., et al., Cell 41 (1985) 665-676), which inhibits the ligand-receptor interaction, was used as reference control."}, "[9]": {"biological_target": "T1, full-length wildtype CSF-1R (wt CSF-1R)", "test": "cell-based or functional assay", "remark": "listed apart in the source"}, "[10]": {"biological_target": "T1, full-length wildtype CSF-1R (wt CSF-1R)", "test": "cell-based or functional assay", "remark": "listed apart in the source"}, "[11]": {"biological_target": "T4, huCSF-1R-huFc chimera (soluble extracellular domain) (human, UniProt P07333 20-517)", "T4 construct": "Captured on the plate by anti Fc-gamma; also called huCSF-1R ECDhuFc chimera; not shown: human Fc part", "T4 sequence (P07333 20-517, change not shown)": "as the sequence (P07333 20-517 limits assumed) above", "test": "competition ELISA: antibody on plate-bound huCSF-1R-huFc, then 3 ng/ml CSF-1", "procedure": "At the beginning, plates were coated with […] goat F(ab′)₂ biotinylated anti Fcγ (Jackson ImmunoResearch., Cat. No. 109-006-170) for 1 hour (h).\nThereafter the wells were blocked with PBS supplemented with 0.2% Tween®-20 and 2% BSA (Roche Diagnostics GmbH, DE) for 0.5 h. 75 ng/ml of huCSF-1R-huFc chimera (soluble extracellular domain) was immobilized to plate for 1 h. Then dilutions of purified antibodies in PBS/0.05% Tween20/0.5% BSA were incubated for 1 h. After adding a mixture of 3 ng/ml CSF-1 (Biomol, DE, Cat. No. 60530), 50 ng/ml biotinylated anti CSF-1 clone BAF216 (R&D Systems, UK) and 1:5000 diluted streptavidin HRP (Roche Diagnostics GmbH, DE, Cat. No. 11089153001) for 1 h the plates were washed 6 times with PBST. Anti CSF-IR SC-02, clone 2-4A5 (Santa Cruz Biotechnology, US), which inhibits the ligand-receptor interaction, was used as positive control. Plates were developed with freshly prepared BM Blue® POD substrate solution (BM Blue®:3,3″-5,5″-Tetramethylbenzidine, Roche Diagnostics GmbH, DE, Cat. No. 11484281001) for 30 minutes at RT. Absorbance was measured at 370 nm. […] Anti CSF-IR SC-02, clone 2-4A5 (Santa Cruz Biotechnology, US), which inhibits the ligand-receptor interaction, was used as reference control."}},
  "note": "Where two headings read alike, the source gives them in different places.",
  "data": [
    {"molecule": "Anti CSF-1R SC-02, clone 2-4A5 (Santa Cruz Biotechnology, US) (antibody)", "values": [
      {"measurement": "% Inhibition of growth of NIH3T3-wtCSF-1R cells, 10 µg/ml antibody", "setting": "[1]", "value": 38, "unit": "%"},
      {"measurement": "% inhibition of CSF-1 induced growth of BeWo cells, 10 µg/ml antibody concentration", "setting": "[1]", "value": 40, "unit": "%"},
      {"measurement": "% survival of NIH3T3-wtCSF-1R cells, 10 µg/ml antibody (CellTiterGlo)", "setting": "[1]", "value": 62, "unit": "%"},
      {"measurement": "IC50 CSF-1R Phosphorylation (CSF-1-induced, NIH3T3-CSF-1R cells, ELISA of lysate)", "setting": "[1]", "value": 0.412, "unit": "µg/mL"},
      {"measurement": "IC50 of inhibition of survival of human monocytes with huCSF-1 (CellTiterGlo)", "setting": "[1]", "value": 2.4, "unit": "nM"},
      {"measurement": "% Inhibition of growth of NIH3T3-mutant CSF-1R cells, 10 µg/ml antibody", "setting": "[2]", "value": 34, "unit": "%"},
      {"measurement": "% survival of NIH3T3-mutant CSF-1R cells, 10 µg/ml antibody (CellTiterGlo)", "setting": "[2]", "value": 66, "unit": "%"},
      {"measurement": "Kd", "setting": "[3]", "value": 2.73, "unit": "nM"},
      {"measurement": "koff", "setting": "[3]", "value": 0.00139, "unit": "s⁻¹"},
      {"measurement": "kon", "setting": "[3]", "value": 509000, "unit": "M⁻¹ s⁻¹"},
      {"measurement": "t1/2", "setting": "[3]", "value": 8.31, "unit": "min"},
      {"measurement": "IC50", "setting": "[4]", "value": 0.0309, "unit": "µg/mL"},
      {"measurement": "percentage (%) of expected binding response", "setting": "[5]", "value": 37, "unit": "%"},
      {"measurement": "percentage (%) of expected binding response", "setting": "[6]", "value": 42, "unit": "%"},
      {"measurement": "percentage (%) of expected binding response", "setting": "[7]", "value": -2, "unit": "%"}
    ]},
    {"molecule": "goat polyclonal anti-CSF-1R antibody ab10676 (abcam)", "values": [
      {"measurement": "percentage of inhibition the growth of NIH3T3-mutant CSF-1R L301S Y969F recombinant cells, up to 20 µg/ml", "setting": "[2]", "value": "< 0", "unit": "%"}
    ]},
    {"molecule": "<CSF-1R>10H2.2F12 (antibody, V domains shown, Mouse monoclonal antibody from a hybridoma) VH: QVQLKQSGPGLVQPSQSLSITCTVSGFSLTTYGINWVRLSPGKGLEWLGMIWRGGNTDYNAAFMSRLTITKDNSKNHVFFQLNSLQPDDTAIYFCAKSGGLRLYYAMDYWGQGTSVTVSS VL: DVVMTQPPLSLPVSLGDQASISCRSSQSLVHSNGNTYLHWYLQKPGQSPKLLIYKVSNRLSGVPDRFSGSGSGTDFTLKISRVEAEDLGVYFCSQSSHVPWTFGGGTKLEIRR", "values": [
      {"measurement": "% Inhibition of growth of NIH3T3-wtCSF-1R cells, 10 µg/ml antibody", "setting": "[1]", "value": 97, "unit": "%"},
      {"measurement": "% inhibition of CSF-1 induced growth of BeWo cells, 10 µg/ml antibody concentration", "setting": "[1]", "value": 100, "unit": "%"},
      {"measurement": "% survival of NIH3T3-wtCSF-1R cells, 10 µg/ml antibody (CellTiterGlo)", "setting": "[1]", "value": 3, "unit": "%"},
      {"measurement": "IC50 CSF-1R Phosphorylation (CSF-1-induced, NIH3T3-CSF-1R cells, ELISA of lysate)", "setting": "[1]", "value": 0.0445, "unit": "µg/mL"},
      {"measurement": "IC50 of inhibition of survival of human monocytes with huCSF-1 (CellTiterGlo)", "setting": "[1]", "value": 0.6, "unit": "nM"},
      {"measurement": "% Inhibition of growth of NIH3T3-mutant CSF-1R cells, 10 µg/ml antibody", "setting": "[2]", "value": 65, "unit": "%"},
      {"measurement": "% survival of NIH3T3-mutant CSF-1R cells, 10 µg/ml antibody (CellTiterGlo)", "setting": "[2]", "value": 35, "unit": "%"},
      {"measurement": "binding result", "setting": "CSF-1R ECD (D1-D3)", "value": "no binding"},
      {"measurement": "Kd", "setting": "[8]", "value": 0.78, "unit": "nM"},
      {"measurement": "koff", "setting": "[8]", "value": 0.0004, "unit": "s⁻¹"},
      {"measurement": "kon", "setting": "[8]", "value": 520000, "unit": "M⁻¹ s⁻¹"},
      {"measurement": "t1/2", "setting": "[8]", "value": 28.6, "unit": "min"}
    ]},
    {"molecule": "<CSF-1R>9D11.2E8 (antibody, V domains shown, Mouse monoclonal antibody from a hybridoma (NMRI mice), captured by anti mouse Fc-gamma in SPR; also called deposited antibody DSM ACC2920) VH: DVKLVESGGGLVKLGGSLKLSCAASGFTFSSYYMSWIRQTPDKRLELVAAIKTNGDNFDYPDTVKGRFTISRDNAKNTLYLQMNSLKSEDTALYYCARSQLLRYYAMDYWGQGTSVTVSS VL: DVVMTQTPLSLPVSLGDQASISCRSSQSLVHSNGNTYLHWYLQKPGQSPKLLIYKVSNRFSGVPDRFSGSGSGTDFTLKISSVEAEDLGVYFCSQSSHVPWTFGGGTKLEIKR", "values": [
      {"measurement": "IC50 CSF-1R Phosphorylation (CSF-1-induced, NIH3T3-CSF-1R cells, ELISA of lysate)", "setting": "[9]", "value": 0.0728, "unit": "µg/mL"},
      {"measurement": "IC50 of inhibition of survival of human monocytes with huCSF-1 (CellTiterGlo)", "setting": "[10]", "value": 0.7, "unit": "nM"},
      {"measurement": "binding result", "setting": "CSF-1R ECD (D1-D3)", "value": "no binding"},
      {"measurement": "Kd", "setting": "[8]", "value": 0.77, "unit": "nM"},
      {"measurement": "koff", "setting": "[8]", "value": 0.00036, "unit": "s⁻¹"},
      {"measurement": "kon", "setting": "[8]", "value": 470000, "unit": "M⁻¹ s⁻¹"},
      {"measurement": "t1/2", "setting": "[8]", "value": 32, "unit": "min"},
      {"measurement": "IC50", "setting": "[11]", "value": 0.01, "unit": "µg/mL"}
    ]}
  ]
}
